Molecular target: T1, IFNγ cellular receptor (IFNGR1 and IFNGR2) on WISH cells (human (endogenous in WISH cells)) (UniProt P15260)
T1 sequence 1: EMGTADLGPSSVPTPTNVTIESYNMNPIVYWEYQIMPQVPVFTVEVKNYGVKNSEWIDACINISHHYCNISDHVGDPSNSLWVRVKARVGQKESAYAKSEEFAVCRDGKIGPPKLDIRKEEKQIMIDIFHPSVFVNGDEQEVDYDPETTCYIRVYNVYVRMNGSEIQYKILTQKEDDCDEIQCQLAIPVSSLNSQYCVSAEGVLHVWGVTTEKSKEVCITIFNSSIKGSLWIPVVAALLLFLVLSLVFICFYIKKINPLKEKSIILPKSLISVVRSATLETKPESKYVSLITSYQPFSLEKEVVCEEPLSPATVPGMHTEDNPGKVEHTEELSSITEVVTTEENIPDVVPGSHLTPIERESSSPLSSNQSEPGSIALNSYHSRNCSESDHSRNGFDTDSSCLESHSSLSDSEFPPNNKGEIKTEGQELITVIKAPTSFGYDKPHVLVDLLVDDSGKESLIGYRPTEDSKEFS
T1 sequence 2: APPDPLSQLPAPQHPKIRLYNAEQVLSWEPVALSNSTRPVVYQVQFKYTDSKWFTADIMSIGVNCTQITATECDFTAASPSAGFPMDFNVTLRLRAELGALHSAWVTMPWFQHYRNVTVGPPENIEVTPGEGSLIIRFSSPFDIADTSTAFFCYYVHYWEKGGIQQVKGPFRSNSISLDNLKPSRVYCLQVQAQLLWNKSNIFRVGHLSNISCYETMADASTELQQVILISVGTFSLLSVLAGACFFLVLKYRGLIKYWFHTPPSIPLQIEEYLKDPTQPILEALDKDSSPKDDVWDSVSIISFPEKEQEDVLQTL

recombinant interferon-gamma (IFNγ) (from UniProt P01579 24-161) (ligand)
antiproliferative activity of IFNγ (IDO induction, modified kynurenine bioassay) on WISH cells, 100 IU/mL IFNγ with LMWH (Fraxiparine): LMWH concentration that reduces the activity to 50% of control: 35 IU/mL
inhibition of IDO induction by 100 IU/mL IFNγ on WISH cells with LMWH (Fraxiparine) 1.5 to 150 anti-Xa IU/mL; highest value at 150 IU/mL: < 80%

Reference: publication PMC8509397
